{"source": "the DeepSol protein solubility set", "data": [{"assay": "soluble on expression in E. coli; label from the status in PepcDB or PDB records", "values": [{"sequence": "MAIPKLQAYALPESHDIPQNKVDWAFEPQRAALLIHDMQDYFVSFWGENCPMMEQVIANIAALRDYCKQHNIPVYYTAQPKEQSDEDRALLNDMWGPGLTRSPEQQKVVDRLTPDADDTVLVKWRYSAFHRSPLEQMLKESGRNQLIITGVYAHIGCMTTATDAFMRDIKPFMVADALADFSRDEHLMSLKYVAGRSGRVVMTEELLPAPIPASKAALREVILPLLDESDEPFDDDNLIDYGLDSVRMMALAARWRKVHGDIDFVMLAKNPTIDAWWKLLSREVK", "soluble on expression in E. coli": "not soluble"}, {"sequence": "MNTDVRIEKDFLGEKEIPKDAYYGVQTIRATENFPITGYRIHPELIKSLGIVKKSAALANMEVGLLDKEVGQYIVKAADEVIEGKWNDQFIVDPIQGGAGTSINMNANEVIANRALELMGEEKGNYSKISPNSHVNMSQSTNDAFPTATHIAVLSLLNQLIETTKYMQQEFMKKADEFAGVIKMGRTHLQDAVPILLGQEFEAYARVIARDIERIANTRNNLYDINMGATAVGTGLNADPEYISIVTEHLAKFSGHPLRSAQHLVDATQNTDCYTEVSSALKVCMINMSKIANDLRLMASGPRAGLSEIVLPARQPGSSIMPGKVNPVMPEVMNQVAFQVFGNDLTITSASEAGQFELNVMEPVLFFNLIQSISIMTNVFKSFTENCLKGIKANEERMKEYVEKSIGIITAINPHVGYETAAKLAREAYLTGESIRELCIKYGVLTEEQLNEILNPYEMIHPGIAGRK", "soluble on expression in E. coli": "soluble"}, {"sequence": "MCGVSLSVIIETLYFACRFRMVEKFLNQSVIWCRSGALRHCRTCGRGRAADTAFTLGDGSKRMGGCVQKEKNEAQKGEKGYRFRLFTGK", "soluble on expression in E. coli": "not soluble"}, {"sequence": "MSEPILKVENLKKYFPVRRGFLSALRGEPQKFVKAVDGVSFEIYKQQVFALVGESGCGKTTTGKLIVKLLEPTDGKIYLEGQDVTELRTKEEIKAYRRKVQMIFQDPFSSMNPRFRIYDVLEEPLLIHGIGETRAEREELIYKALEMVKITPPEEYVGRFPHMLSGGQRQRVAIARALILNPTFVVADEPVSMLDVSIRAEILELMKELKEKMGVTYLYITHDLSTARYFADWIAVMYLGRIVEMGPAKEIIDNPLHPYTRALLAAVPEPIPERKDVIKELPIKGEVPSAVNIPSGCRFHPRCIYFKKGLCDVKQPQLIEYSHNHWVECHRVGEI", "soluble on expression in E. coli": "soluble"}, {"sequence": "MSLKPQKILIATDGSEASEKAADFGIETLRFEGAKVYAVYVIDTGSYGSVPVDEKKFKKIERLEEIGHKATSYVEKKATAAGMKVESIVLKGNPAEEIVDFAEEQRVDMIVVGSLGKSGIKRFMLGSVSEKVVRRAKIPVLVVREQKEIKPQKQILIAADCSKATEKAVDFGIEIAKLNGAKVYAVHVIDPIFNDLMEEAWAENAYEQFKKIGREAVSYVEEKANAAGVKVESAVLEGNPAEEIVDFAEEQKVDMIVVGSLGKSGYEQFAIGSVSSKVLRNAKVPVLIVHDIYEFVELFRRCQKSEEVLTPVAGEKEGHHHHHH", "soluble on expression in E. coli": "soluble"}, {"sequence": "MHHRHLQVLRTDASGMPLEWIGYQEAAKLYYLEQVAYGCGSILFRLRGGINAKTGQRSRIEVNSIVATFGHANSGYKVDMGYVPPLNNAALFRRDGHICLYCGNLFRHSELSRDHIQPTSRGGSDTWNNVVTACKRCNNHKAGRTPEEAKMQLLAIPFTPTHAEYIYLQGRRVLADQMEFLKAHFPRKSPLHQRLSLEHHHHHH", "soluble on expression in E. coli": "not soluble"}, {"sequence": "MESKNKNGDYVIPDSVKNYDGEPLYILVSLWCKLQEKWISRNDIAEAFGINLRRASFIITYISRRKEKISFRVRYVSYGNLHYKRLEIFIYDVNLEAVPIESPGTTGPKRKTYRVGNGIVGQSNIWNEMIMRRKKES", "soluble on expression in E. coli": "not soluble"}, {"sequence": "MGSDKIHHHHHHMTKDQQNIERGSVINVEILNAAHGGQGIAKYDGRVIFVKGAFPGDRLSANITHVKKKFARATIASIEMPSPLRMQQRCLAAANGAGCCDFGEFDPEIEGRYKADLVLEQLERLGKVSQPPTCEVVSFGSPTQWRTRMRLGVDAQGRAGGFASQSREVVSGVPCSQGVMGLLDGIVGAEQNVLRFTPGSQVVVVCDDLGQRTVVETQPAPRGKRTESMVKVVEGTGKVSQVVDGVTFELPATGFWQSHKDAAQAYADTIREWFGSLIIRNTDSSLVAWDLYGGCGSFASAILSAVDNHGVVHCVESAPAAVSAGKRALSQLVEDQKIVFHTETVERAMNQLPAPTLVVLDPPRVGAGAETVRAIAQSGPQAAIHIGCDPATFARDIAEWSRNGFILEKLRVFDAFPGTHHCETIGLLTKKN", "soluble on expression in E. coli": "not soluble"}, {"sequence": "MNQWMELADRVLAGAEVTDEEALSILHCPDEDILLLMHGAFHIRKHFYGKKVKLNMIMNAKSGLCPENCGYCSQSAISKAPIESYRMVNKETLLEGAKRAHDLNIGTYCIVASGRGPSNREVDQVVDAVQEIKETYGLKICACLGLLKPEQAKRLKDAGVDRYNHNLNTSQRNHSNITTSHTYDDRVNTVEIAKESGLSPCSGAIIGMKETKQDVIDIAKSLKALDADSIPVNFLHAIDGTPLEGVNELNPLYCLKVLALFRFINPSKEIRISGGREVNLRTLQPLGLYAANSIFVGDYLTTAGQEETEDHKMLSDLGFEVESVEEMKASLSAKSLEHHHHHH", "soluble on expression in E. coli": "not soluble"}, {"sequence": "MTDFQKQFFARLHIEEKDTVSFEDLSNIMYAMAQTVPFENLNILEKNFKEISKENLKEKILVNNRGGLCYELNPTMYYFLKDSGFDVHLVSGTVYNAANSIWAVDSGHIATVLTHHNELYLIEVGFGSYLPLAPVPFLGEVIHSATGDYRIRKEMTEKGNYILEMRKNNEFLDQSAADDWTLGYAFYIEEVDEEKANTAQKIIVEHEGSPFNKVPLIVKLTEDGHASLTKDSLTVAKNGKKTKETVTDMQYTNLLHSKFGITL", "soluble on expression in E. coli": "not soluble"}, {"sequence": "GWQAFKNDATEIIPELGEYPEPPPELENNKTMNRAENGGRPPHHPFETKDVSEYSCRELHFTRYVTDGPCRSAKPVTELVCSGQCGPARLLPNAIGRGKWWRPSGPDFRCIPDRYRAQRVQLLCPGGEAPRARKVRLVASCKCKRLTRFHNQSELKDFGTEAARPQKGRKPRPRARSAKANQAELENAY", "soluble on expression in E. coli": "soluble"}, {"sequence": "SNPSSSGGTTKRFRTKFTAEQKEKMLAFAERLGWRIQKHDDVAVEQFCAETGVRRQVLKIWMHNNKN", "soluble on expression in E. coli": "soluble"}, {"sequence": "MSEQSFSNANKGSETLNGSAASFVSHKRFYDDTNFPKGFKRSGDFTSKEAELLELHGHAMKNLAEGKTLPVTADEAQFVEVIKGNIAPSSLLEHIWLKYRKLARGKPFYAVVGTVHLPATKPEVEVEPEAAFDVDVEIEDDVQDEAEPEDKA", "soluble on expression in E. coli": "soluble"}, {"sequence": "DQALSGQLRIGASDTIGNQVAPYLLSEFRQQTNHRSQSLFISNSAQICDMLTDYELDIALIEGKTLHPELQSTQFSEDEMCVICAPDYPAAHEGPVNLTELENSEWILREAGSGSREFFMRVVAPRLEHWHEAFQLNTTEAL", "soluble on expression in E. coli": "not soluble"}, {"sequence": "MAILLNRPTLSRLPWFPLRPEDFTTLLQTADFRLRLLEAIAAATRRVYICALYLENEEAGQEMLDALYRAKQRNPQLDVRVMVDWHRAQRGRIGEDQSHCNASWYREEAARRELDIPIYGVPVQTRELFGVLHLKGFVIDDTVFYSGASLNNVYLHKLDKYRFDRYHLIRSPELADAMAGFMAEQFFNDPAVFRLDKPTPSTRSIRKEIRQLRDKLSHSQYRPGSAHAAPDELAISPIVGIGKGNRLNRAILDVIAGAQRRLFICTPYFNFPRAVVLEINRALRRGVEIDIVVGDKTANDFYIPPEQPFRVIGALPYLYEMNLRRFAKRQRQYLSREQLRVRLWKDGDNTYHLKGIWSDDRFILLTGNNLNPRAFRLDLENALLLRDPQGALRGQSAAEQQSILRHTTQLSHYRQLEDVRAYPEQIKKLLTRLSRVRIDRMLNLMLLEHHHHHH", "soluble on expression in E. coli": "soluble"}, {"sequence": "MTESEVRKLLRRMKELDSQTAFRAFYDMTYDRLYRIAYYYVKREEWSQEIVLDVFLKLWEQRSSLPEVKSIEDYCFILVKNASLNYLEKENRRTTVSTETLPEPEAQSDSPEESMISEELFAIYVKALDRLPERCREVFIRIREEKQSYAQVAEELGISTKTVDAQLQKATIRLKEAISMVNNDR", "soluble on expression in E. coli": "not soluble"}, {"sequence": "AGIVNQVTAKNITADLQGGYPWSESNPLLLSDVSVDVLGGQIIMKQLRMPQHDPALLRVQNISSSELISAINPKQFAMSGPVSGALPLWLNNEKWIIKDGWLTNPGPMTLRIDKDTADAVVKDNVTAGSAINWLRYMEITHSWTKINVDNLGVLTMQAAITGKSRVDGKTAIVNLNYTHEENVFTLWRSLRFGDNLQAWLEQNTALPQPP", "soluble on expression in E. coli": "not soluble"}, {"sequence": "MNTRIKPVRSFLFVPGNKESMLDKAAQAGADALILDLEDSVPSPEKTAARELVAKKIPELIAQNQRIWVRINRTAHIYDLDDILAVAPAGIEGIYISKPGGPEDVYMASCMIAEAEARANLPLGSIGLIPLLETARSMQLCYDIAQMPRVAGIVGATARNADMGRALKFVWTAEGRETEYLKSRVVMAARAAGKQAIGGLWQQIKDLDGLAKSSAFDRQLGMSGELVLHPMQVETINRTYTPTAEDVAYYQGMIEALDAAQAQGRASVMYEGEHIDIAHVKTAHEVIALAQSFGN", "soluble on expression in E. coli": "not soluble"}, {"sequence": "DNNRWIPIKPGTDSALVLGMIQWIIENQRYNKTFLAQPGANAMKRAGTAHWCNATHLVISDEQHPRNGTFLRASDLNLPFEGEALSDSDPYVIVEEQSGQFGVHTQTEEATLFVDKTVSLASGKVRVKSSLQRLKEEAFKYSLAFYSQQCEIPVEQIAELAKRFTSCGTKAVVDTHGGNMHTNGFYNSFTIMMLNALIGNINMKGGAMAKAGGYPTSAAGPRYDFTKFAGKVGPKGVFLSRSKFPYHKTSEYKRRVEAGKSPYPTRAPWYPFAAPLLTEHLSAAIDGYPYRVKAWINHMANPMYGVPGLKTLLEDKLKDPKQLGLIVSVDAFINETTALSDYIVPDTVTYESWGMATPWHDVPVKTITARWPIVEARTEKTADGRSICLENFLIDVAKKMQLGGFGDNAIQDAQGNWHALHSAEDFYLRSAANLAYVKGGVPEVSAEDIAWSGLERLMPAMQSTLTADEMKRVAFIFARGGRFENATEAYQGEQMKHKWTRPVAIWNERVGSARNTMTGDFYTGCPTWHPQKLADGTPMEEQFPSSEWPFSLTNFKSNIHSAVSNLSPRLNSIKGVNPVYIHPIDAERAGIKTGDEFVIETPSASTKALAMIVSGIRPGTLGFEHGFGHTELGQRSHWIGDKQQPVKTRSQDGVNINDIGLIDPTREGKGVLLDWVVGAAARQSLPAKIRKA", "soluble on expression in E. coli": "not soluble"}, {"sequence": "MSLNALIEELKRLLKECATKKIVVIGECVRDVFVNTQRLSGPSDYQYTITKQLQRREFPGGAYPVARDLSNFVSKVHFVTCSTHEFPTNLERMDVIPISRERISKTRFFSGHNSNIFHYHCVFSEEITLSLTPLQELASVFSEADLVIVLDYGHGLLNSDVRKSISQNARFVALNCQANEDKYPFHQIWKYESTDLLLLNKVEAEINLLKTGVPVQELALRLHSKFKSTYTIVTDAEHGAVIQHDYRAYSSPAMSSCVVDAVGCSDIMLGFAALAAQNGKSAEEILYFASVAAGAKTMINVHERPLSREDLYEIALGVQNEGHHHHHH", "soluble on expression in E. coli": "not soluble"}, {"sequence": "MAHHHHHHMKEYLAQKEYRAKEYRAKDYPAKDYSGKKEYTSKKAYTPKKEYTAIRGCAVENAYFDEKAYTGCKANQGEEAHKNDASVVEGGKSKKNEERVLAGMIKILEEMKESDDASNAVDPGFN", "soluble on expression in E. coli": "not soluble"}, {"sequence": "MGSDKIHHHHHHMEKIIEINDSIIQISDLNDRIYIMKLGKDVGELIKHVDSVCNEKKLSKVFAKVSGNKKELFEKNGYICEGKLENYYSNDDAYFMSKFFEESRKISKFSKEAEDVLNYVKTVGVNPHTKIDEKFHLKIANETDAEKLSKHYSKVFKTYPFPIDDPNYILKTMQTNVKYFIIEDNGKIVAASSCEMDIKNKCVEMTDFAVLEEYQKLGLSKYLLYIMEKIMKDNGYRVFYTIARSISYGMNITFKKMGYMYSGTAVNNTNICGNFEDMNFWYKLSE", "soluble on expression in E. coli": "not soluble"}]}]}
